Values quoted from earlier work, collected in article PMC3134397.

Legend:
RAE-1β (Mus musculus) = RAE-1β (Mus musculus) (UniProt O08603); assay: AUC
RAE-1δ (Mus musculus) = RAE-1δ (Mus musculus) (UniProt Q9JI58); assay: AUC
RAE-1γ (Mus musculus) = RAE-1γ (Mus musculus) (UniProt O08604); assay: AUC
[1] = biological target: UL18 (Human betaherpesvirus 5) (UniProt P08560); assay: SPR

Sequence of UniProt O08604 (O08604 29-227): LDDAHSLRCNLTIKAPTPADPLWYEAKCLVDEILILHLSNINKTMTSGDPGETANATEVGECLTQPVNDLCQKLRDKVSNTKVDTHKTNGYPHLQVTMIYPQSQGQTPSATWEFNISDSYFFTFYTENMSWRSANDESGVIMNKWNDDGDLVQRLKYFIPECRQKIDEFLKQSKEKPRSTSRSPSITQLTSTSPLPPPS
Sequence of UniProt Q9JI58 (Q9JI58 29-225, stated change not applied): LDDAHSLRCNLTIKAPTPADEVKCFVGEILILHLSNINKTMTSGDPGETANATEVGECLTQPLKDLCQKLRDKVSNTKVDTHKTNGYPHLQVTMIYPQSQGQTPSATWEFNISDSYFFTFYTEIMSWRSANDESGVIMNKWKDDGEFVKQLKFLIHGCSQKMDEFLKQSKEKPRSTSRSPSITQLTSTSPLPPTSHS
Sequence of UniProt O08603 (O08603 29-229): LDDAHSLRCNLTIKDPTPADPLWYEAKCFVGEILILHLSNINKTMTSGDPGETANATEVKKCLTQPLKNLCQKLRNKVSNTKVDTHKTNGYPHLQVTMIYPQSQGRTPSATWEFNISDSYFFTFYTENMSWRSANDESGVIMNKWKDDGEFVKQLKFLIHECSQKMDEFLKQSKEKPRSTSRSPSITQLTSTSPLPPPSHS

Substance | Kd (RAE-1β (Mus musculus)) [nM] | Kd (RAE-1δ (Mus musculus)) [nM] | Kd (RAE-1γ (Mus musculus)) [nM] | Kd [1] [nM]
m152 (from UniProt Q83156) | 3000 | 30000 | 1000 | 
LIR1 (from UniProt Q8NHL6) |  |  |  | 10
